Measurements: patent publication US20140287419A1, “Compositions Having Dicamba Decarboxylase Activity and Methods of Use” (priority 2013, published 2014)

Experiment: 14C assay with IPTG-induced recombinant E. coli cells (14CO2 capture from [14C]-carboxyl-labeled dicamba)
Conditions: for decarboxylation activity of dicamba: E. coli cell assay, 108 sequences tested; for Dicamba Decarboxylase Activity: IPTG-induced recombinant E. coli cells, [14C]-carboxyl-labeled dicamba, 14CO2 capture; for Enzymatic Detection level: dicamba decarboxylation activity of the protein of the given SEQ ID NO

B1: SEQ ID NO:21: reversible 2,6-dihydroxybenzoic acid decarboxylase, Agrobacterium tumefaciens (protein, listed as Agrobacterium tumefaciens)
chain: MAQGKVALEEHFAIPETLQDSAGFVPGDYWKELQHRLLDIQDTRLKLMDAHGIETMILSLNAPAVQAIPDRKKAIEIARRANDVLAEECARRPDRFLAFAALPLQDPDAATQELQRCVNDLGFVGALVNGFSQEGDGQTPLYYDLPQYRPFWGEVEKLDVPFYLHPRNPLPQDSRIYDGHPWLLGPTWAFAQETAVHALRLMASGLFDAHPRLNIILGHMGEGLPYMMWRIDHRNAWVKLPPRYPAKRRFVDYFNENFHITTSGNFRTQTLIDAILEIGADRILFSTDWPFENIDHASDWFNATTIAEADRVKIGRTNARRLFKLDGR
  decarboxylation activity of dicamba: showed decarboxylation activity of dicamba

B2: SEQ ID NO:4: o-pyrocatechuate decarboxylase, Lactobacillus buchneri NRRL B-30929 (protein, listed as Lactobacillus buchneri)
chain: MAKVITLEEHFSSQKLGQKMAEVLPKRPIGNVSPKMQDYMQRSLPPEAELEDVTGSRIQWMDQHQISMQILSYGNQNPQNSDPKFAVELTKLANDELAKAVAKAPDRFRAFASLPVSHPTDAAAELKRGVEELGFKGAMLVRPTSQAHPFFDDPFYLPIFEAAANLNVPVYLHPSFPDSQIIDYYYSNGPWDDKVSGILGTAGYGWHTDVGIQTVRLLLSGVFEKYPNLKLISGHWGEFASFALERMDQVMYPETNLSEPISKIYRDHVYVTPSGILTEPQLKFVKDEVGIEHLLYSIDYPYIKPENSGSFIESSPLTDEEKELFAHGNAEKLLQL
  decarboxylation activity of dicamba: showed decarboxylation activity of dicamba

B3: SEQ ID NO:89: amidohydrolase, Erwinia billingiae Eb661 (protein, listed as Erwinia billingiae)
chain: MATNRRDFLKNATAVMAGSTVFAGSSHFASAAAVEPAAVQPPRRIIALEEHFMLPEFVGYLHETQQNLRNGLVDKVVTPLSDFGKGRLEIMDKNGVDFAVLSLSGPGVQAEPDRVKAVRLARYANDKLATEMQKNPRRYGGFAHLAMQDPLAAANELERCVKQLHMQGGMINGETDGLYLDDRRYDVFWERVEALNVPIYIHPGNPPDYPHMFAGHPEMWGPVWSWAVETCSHALRLIFSGTFDRYPGARVILGHMGETLPIQLWRLDSRYQIANQTFAIKHPPSWYAKKNITITTSGVCNDAALRCALDSMGSENVMFSIDYPFESTEIAVNWLKTANITEQERNAVAWGNATSILRLGA
  decarboxylation activity of dicamba: showed decarboxylation activity of dicamba

B4: 33 (protein, listed as Rhizobium leguminosarum)
chain: MAQGKIALEEHFAIPETLQDSAGFVPGDYWKELSARLLDIQEKRLRLMDAHGIEKMILSLNAPAVQAIPDRAKALEISRRANDFLAEQCVKNPNRFLGFAALPLQDPDAATQELQRCVTTMGFVGALVNGFSQEGDGTTPLYYDLPQYRSFWAEVEKLNVPFYLHPRNPLPQDSRIYAGHSWLMGPTWAFAQETAVHALRLMGSGLFDEHPALRIIVGHMGEGLPYMMWRIDNRNAWVKVEKSYPAKRPIADYFNENFYITTSGNFRTQSLIDAMLEIGADRILFSADWPFENIDHAANWFDSATISEADRLKIGRTNAVSLFKLDR
  Dicamba Decarboxylase Activity: High
  Enzymatic Detection level: High

B5: SEQ ID NO:26: o-pyrocatechuate decarboxylase, Variovorax paradoxus EPS (protein, listed as Variovorax paradoxus)
chain: MATHMAPMKNKIALEEHFAIDLTIADSQVYARPEVWQGLKSNLLDFEQQRLEKMDEWGTEFSILSLNSPAVQGIPDAKRAIEVAQRANDVLAEQVKRHPTRFGGFAALPMQDPEASARELERCVNQLGFHGFLVNGFSQVGDENIVVYYDDARFNDFWTAAAALKKPFYMHPRDPLLAREPIYDGAHWLTGPTWAFAMETAIHALRLMSSGMFDRHPALQMILGHFGEGIPFNIWRVDHILRKGRRGMPCDKEIGEYLRSNVHITTSGNFRTPTLLSTMLEVGSDRIMYSVDYPFEKHEDAARWFDTCEISENDRQKIGRDNARKLFGLK
  decarboxylation activity of dicamba: showed decarboxylation activity of dicamba

B6: 35 (protein)
chain: MAFKASRKIALEEHFAIDATVQDSAGFVPPSYWAELKRRLLDIHDRRIDEMDRNGVELMVLSLNAPTVQAVPNIKDAYDLSRRANDFLAEQIVKRPERFKGFAALPMQSPDLAARELERCVKELNFVGALVNGFSQVEESGTALYYDLPQYRQFWSVVQALDVPFYLHPRNPLPAHAPIYEGHPWLLGPTWAFGQETAVHALRLMGSGLFDEYPELKIILGHMGEGLPYSMWRIDNRNAWVETQPNYPAKKRIAEYFHKNFWLTTSGNFRTQTLIDAMLEIGSDRILFSTDWPFENVDHAAQWFDDAAISENDRIKIARTNAARLFKLEP
modifications: Burkholderia sp
  Dicamba Decarboxylase Activity: High
  Enzymatic Detection level: High

B7: SEQ ID NO:19: 2,3-dihydroxybenzoic acid decarboxylase, putative, Talaromyces marneffei ATCC 18224 (protein, listed as Talaromyces marneffei)
chain: MATPIITLEEHYISSAIRDASETDHYAVFPSQIISKLNTLSTERLQDLDNGHVSLQVISHGPGAQPPYLCQAANDELASAISANPTRFAGFALLPIAEPQLAVQELERCITQHKFVGALIDNHTNGQFYDDQKFWPVFEKAQELDAPIYVHPSYPDEESGVAAHYRGNYDDRIAAALGAYGWGWHSDTALSILRLFAAGLFDTYPNIKIIIGHMGEMLPFQLERVIGIASRFGRSRGLREVWTQNIWVTTSGMFALAPLACLLQTMPIERVLYSVDYPFSANEKGFAFLEEIKKSGLIKEGEDWERFLYKNAQELLKVNV
  decarboxylation activity of dicamba: showed decarboxylation activity of dicamba

B8: 34 (protein)
chain: MAQGKIGLEEHFAIPETLNDSAGFVPGDYWKELSRRLLDIQDDRLRQMDENGMEMMLLSLNAPAVQAVPDRKQACELAVRANDFLAEQVSRRPDRFQALAALPLQDPDFATVELTRCVNELGMRGALVNGFSQIDTPDNVVYYDAPQYASFWAAVEKLDVPFYLHPRNPIASWAQIYDGHPWLLGPTWAFGQETAVHALRLMASGLFDRHPALQIVLGHLGEGLPYSLWRIDNRNAWVKAPKTHPAKKTFRHYFQQNFHLTTSGNFHNQTLIDAILEIGADRILFSTDWPFENIDHAAKWFDSASISEADRTKIGRTNAMKLFKLVA
modifications: Cupriavidus necator
  Dicamba Decarboxylase Activity: High
  Enzymatic Detection level: High

B9: SEQ ID NO:5: possible o-pyrocatechuate decarboxylase, Staphylococcus aureus subsp. aureus MN8 (protein, listed as Staphylococcus aureus)
chain: MAQNNMEANQMKSITFEEHYVIEDIQKETMNAISADPKGVPMKVMLEGLEKKTGFTNADELSHHDERIQFMNNQDVQIQVLSYGNGSPSNLVGQKAIELCQKANDQLANYIAQYPNRFVGFATLPINEPEAAAREFERCINDLGFKGALIMGRAQDGFLDQDKYDIIFKTAENLGVPIYLHPAPVNSDIYQSYYKGNYPEVTAATFACFGYGWHIDVGIHAIHLVLSGIFDRYPKLNMIIGHWGEFIPFFLERMDEALFAEHLNHPVSYYFKNNFYITPSGMLTKPQFDLVKKEAGIDRILYAADYPYIEPEKLGVFLDELGLTDEEKEKISYTNGAKLLGLSSNN
  decarboxylation activity of dicamba: showed decarboxylation activity of dicamba

B10: SEQ ID NO:16: possible o-pyrocatechuate decarboxylase, Staphylococcus aureus subsp. aureus TCH60 (protein, listed as Staphylococcus aureus)
chain: MAQNNMEANQMKSITFEEHYVIEDIQKETMNAISADPKGVPMKVMLEGLEKKTGFTNADELSHHDERIQFMNNQDVQIQVLSYGNGSPSNLVGQKAIELCQKANDQLANYIAQYPNRFVGFATLPINEPETAAREFERCINDLGFKGALIMGRAQDGFLDQDKYDIIFKTAENLGVPIYLHPAPVNSDIYQSYYKGNYPEVTAATFACFGYGWHIDVGIHAIHLVLSGIFDRYPKLNMIIGHWGEFIPFFLERMDEALFAEHLNHPVSYYFKNNFYITPSGMLTKPQFDLVKKEAGIDRILYAADYPYIEPEKLGVFLDELGLTDEEKEKISYTNGAKLLGLSSNN
  decarboxylation activity of dicamba: showed decarboxylation activity of dicamba

B11: SEQ ID NO:88: o-pyrocatechuate decarboxylase, Starkeya novella DSM 506 (protein, listed as Starkeya novella)
chain: MARKIALEEHFTTPELAGKYVARPTQSDALFADIERRLADFDELRLEMMDRAEIDLMVLSVTTPGVQGVRDTGEAIRLARGANDFLAREVQKRPSRYAGFAHLAMQDAEAAATELERAVRELGFRGALINGQTNGHYLDEDQYAPFWERVQELDVPVYLHPGNMADSPAMFAHRPELGGPIWAWTAETAAHALRLVFGGTFTRFPGAKVILGHMGETLPFLLWRLDSRREFDLGEKLAPDALPSAIIKRNIAVTTSGVCDPAPLVAALQALSDDNVMFSVDYPYEDPQLASKFIETAPIGEETRAKVCHGNAERLLGL
  decarboxylation activity of dicamba: showed decarboxylation activity of dicamba

B12: SEQ ID NO:22: possible o-pyrocatechuate decarboxylase, Staphylococcus epidermidis M23864: W1 (protein, listed as Staphylococcus epidermidis)
chain: MAKSINFEEHYVVDDIQKETMKYMSSDPNGVPMQTMLKGLEQKSGFTNADDITKHDERIKFMDEHDVEMQVLSYGNGAPSNLEGERAIELCQQANDTLAKYVNEHPDRFVGFATLPINEPQAAVEEFKRCIKELGFKGALIMGHPKNGFLDQDQYDDLFATAEALNVPIYLHPSPVQSDVYQAYYKGNYSDVTAATFACFGYGWHVDVGIHAIHLVLSGVFDRHPNLNMIIGHWGEFVPFFLERMDDILFADHLEHPISYYFKNNFYITPSGMLTKPQFDLVKAEVGVDRILYSADYPYVEPDKLGTFLDELDLTEEEKEKISYKNGAKLLGLEK
  decarboxylation activity of dicamba: showed decarboxylation activity of dicamba

B13: SEQ ID NO:92: amidohydrolase 2, Chitinophaga pinensis DSM 2588 (protein, listed as Chitinophaga pinensis)
chain: MARIVTLEEHVSFPEMTALLPEEILKNRKQSGAALQMQEKLADITGERLTSMKAAGISMQVLSVENTDVYLLPDSLAPAFAAKYNDLLADKISSHSDAFAAFAMLPMTVPEAAADELERAVKTHGFCGAMIKGLINGVFLDAPKFAPVFACAEKLGVPLYIHPGIPPKEVIDAYYSNVGDTKGPNEAIACYGWGWHSETAIHILRLLAAGIFDKYPQLNIIIGHMGEMLPMMWERSNRVFQPGNNGKNQRTLIETFRKQLYITTSGIFTQPPLQIAIDTIGIDNILFSIDYPFSSNQMGIDFLTKAALPAEQLAKMAHGNADRILKF
  decarboxylation activity of dicamba: showed decarboxylation activity of dicamba
